Source: patent US20160039936A1, “FIBROBLAST GROWTH FACTOR RECEPTOR INHIBITION FOR THE TREATMENT OF DISEASE” (UNIVERSITY OF MIAMI, priority 2011, published 2016)

B1: FGF23: recombinant mouse FGF23, 6His-tagged Tyr25-Val251 (Arg179Gln) (R&D Systems) (protein)
chain: YPDTSPLLGSNWGSLTHLYTATARTSYHLQIHRDGHVDGTPHQTIYSALMITSEDAGSVVITGAMTRRFLCMDLHGNIFGSLHFSPENCKFRQWTLENGYDVYLSQKHHYLVSLGRAKRIFQPGTNPPPFSQFLARRNEVPLLHFYTVRPRRHTQSAEDPPERDPLNVLKPRPRATPVPVSCSRELPSAEEGGPAASDPLGVLRRGRGDARGGAGGADRCRPFPRFV
modifications: left off: small tags and cut ends
B2: FGF2: recombinant mouse FGF2 (Ala11-Ser154) (R&D Systems) (protein)
chain: ALPEDGGAAFPPGHFKDPKRLYCKNGGFFLRIHPDGRVDGVREKSDPHVKLQLQAEERGVVSIKGVCANRYLAMKEDGRLLASKCVTEECFFFERLESNNYNTYRSRKYSSWYVALKRTGQYKLGSKTGPGQKAILFLPMSAKS

How the values were obtained:
[1] = system: 5/6 nephrectomy rat model of CKD; experiment: 5/6 nephrectomy rat model of CKD; format: in vivo; conditions: PD173074 1 mg/kg/day i.p. 14 days
Excerpt: FGFR activity is required for the development of LVH in a rat model of CKD Since the cardiac effects of FGF23 are mediated by FGFR activation and could be blocked in vitro by the FGFR inhibitor PD173074, we tested the hypothesis that PD173074 could also attenuate LVH in the 5/6 nephrectomy rat model of CKD, which is known to develop increased FGF23 levels, severe hypertension, and LVH. We performed 5/6 nephrectomy in male Sprague Dawley rats using standard surgical techniques, and administered by intra-peritoneal injection either 1 mg/kg body weight/day of PD173074 dissolved in PBS (n=6) or vehicle alone (n=6) beginning one hour after surgery and continued daily for 14 days (FIG. 7). As a negative control, 6 rats underwent sham nephrectomy. At day 14 after surgery, we measured blood pressure, performed echocardiograms, collected blood for laboratory testing, sacrificed the animals and examined their hearts. […] Compared with vehicle, PD 173074 treatment led to decreased left ventricular mass, reduced ratio of heart weight to total body weight, decreased left ventricular wall thickness and relative wall thickness, decreased cross-sectional surface area of individual cardiac myocytes, and increased left ventricular end diastolic volume and ejection fraction (FIG. 7A-C). […]
Kidney disease was induced in Sprague Dawley rats using the 5/6 nephrectomy method (Di Marco et al., 2014). Rats were randomized to 3 groups of 6 animals each: sham nephrectomy, or 5/6 nephrectomy plus intra-peritoneal injections of vehicle (PBS) or anti-FGFR4 blocking antibody (human monoclonal, U3-11; U3Pharma) at 25 mg/kg/day every 3 days beginning one hour after surgery. High-resolution echocardiography (15 MHz) was performed at 14 days after surgery to assess LV mass, wall and chamber dimensions, and systolic and diastolic function using an HDI 5000 Ultrasound system (Philips, Best, The Netherlands). M-mode, 2D and 3D recordings were obtained under general anesthesia delivered through a nose mask while heart rate and body temperature were maintained. Blood pressure was measured in conscious rats using a computerized rat-tail cuff technique (CODA, Kent Scientific Corporation). On day 14, animals were sacrificed and the hearts were isolated and prepared for histological and serological analyses.
Short-axis heart sections were stained with hematoxylin and eosin (VWR) and used to quantify myocardial thickness by measuring the distance from the inner to the outer myocardial edges at the mid-chamber zone. Mean left ventricular free wall thickness was calculated from seven measurements of wall thickness taken at 0, 30, 60, 90, 120, 150 and 180 degrees along the hemi-circle of the short axis of the free wall. Images were taken on a Nikon SMZ 1500 microscope using 0.75× magnification.
We measured cross-sectional area of individual cardiac myocytes in paraffin-embedded short-axis sections of mouse and rat hearts. Briefly, 7 μm thick sections were deparaffinized according to our established protocols (Faul et al., 2011). To visualize cellular borders, fixed tissue was incubated with wheat germ agglutinin (WGA) conjugated to Alexa Fluor555 (Invitrogen) at 1 mg/ml in PBS containing 10 mM sodium azide. Immunofluorescence images were taken on a Leica TCS-SP5 confocal microscope with a 63× oil objective. Leica AF6000 fluorescence software was used to quantify cross-sectional area of 25 cells per field at four fields along the mid-chamber free wall based on WGA-positive staining.
Short-axis cardiac sections from mice and rats were stained with Picrosirius Red (Sigma-Aldrich) and used to quantify myocardial fibrosis. Sections were deparaffinized, counterstained with hematoxylin (VWR) and incubated in Picrosirius Red solution for 60 minutes. After washing in acidified water, sections were dehydrated in ascending ethanol series and mounted in non-aqueous mounting media. […]

isolated NRVM [2] = experiment: Signaling immunoblots in NRVM (p-ERK, Egr-1, p-NFAT, p-Akt); format: cell-based, rat; conditions: for Egr-1 levels / phosphorylated ERK: 30 and 60 minutes
Experimental: (§1) NRVM were scraped from a 6 cm-plate using 400 μl CHAPS extraction buffer [(20 mM Tris-HCl pH7.5, 500 mM NaCl, 0.5% CHAPS, protease inhibitor cocktail (Roche), protein phosphatase inhibitors (Sigma-Aldrich)] and incubated on ice for 15 minutes. The cell lysate was centrifuged at 14,000 rpm and 4° C. for 15 minutes and the supernatant boiled in sample buffer and analyzed by SDS-PAGE and immunoblotting as described before (Faul et al., Cell Biol., 169(3):415-424, 2005; Faul et al., Mol. Cell Biol., 27(23):8215-8227, 2007). For protein extraction from mouse hearts, tissue was isolated, minced and homogenized in CHAPS extraction buffer at 1:10 (w:v) and protein lysates were prepared as described above. Antibodies to sarcomeric α-actinin (EA-53; Sigma-Aldrich; 1:1000), total (Cell Signaling; 1:1000) and phospho-ERK (Cell Signaling; 1:1000), total and phospho-NFAT-c1 (Santa Cruz Biotechnology; 1:200), total and phospho-Akt (Cell Signaling; 1:1000 and 1:2000), and GAPDH (Abcam; 1:10,000) were used as primary antibodies and horseradish peroxidase conjugated goat-anti-mouse and goat-anti-rabbit (Promega; 1:20,000) were secondary antibodies.

HEK293 cells = experiment: FGF-FGFR-dependent signaling in HEK293 cells (Western blot, immunoprecipitation); format: cell-based; conditions: HEK293 expressing wild-type FGFR4, within 6 hours
isolated NRVM [3] = experiment: Hypertrophic marker expression in NRVM (RT-PCR, α-actinin immunoblot); format: cell-based, rat; conditions: for α-actinin protein levels: 48 h, immunoblotting; for expression of ANP and BNP / expression of medium chain acyl-CoA dehydrogenase (MCAD) / expression of α-myosin heavy chain (α-MHC) / expression of β-myosin heavy chain (β-MHC): RT-PCR
Experimental: RNA was purified from isolated NRVM using the RNeasy kit (Qiagen), and from mouse cardiac and renal tissue using 1 ml per 100 mg tissue TRIzol (Invitrogen), following the manufacturers' protocol. Prior to RT-PCR, total RNA samples were digested with DNase I (Roche) and RNA was transcribed into cDNA using Superscript II (Invitrogen). For RT-PCR, 100 ng cDNA, AmpliTaq Gold DNA polymerase (Applied Biosystems) and sequence specific primers were used. 30 cycles (95° C., 5 minutes-53° C., 30 seconds-72° C., 30 seconds) were run on a GeneAmp PCR System 9700 (Applied Biosystems) and reactions were analyzed on a 2% agarose gel. Ethidium bromide signals were captured with a Bio-Rad Gel Doc XR system and quantified by densitometry using ImageJ software (NIH). Values were normalized to GAPDH signals and cDNAs from three independent experiments were analyzed. For nested PCR, 100 ng cDNA were used in the first run (15 cycles) with sequence specific outside primers. Five percent of the reaction was used as template for the second run (25 cycles) with sequence specific inside primers, and the total reaction was analyzed by agarose gel electrophoresis.
as §1

Molecule | 5/6 nephrectomy-induced increased cardiac β-MHC and ANP and decreased MCAD mRNA [1] | blood pressure vs vehicle [1] | renal function and serum FGF23 levels vs vehicle [1] | LVH ([1]; vs vehicle) | cross-sectional surface area of individual cardiac myocytes ([1]; vs vehicle) | left ventricular end diastolic volume and ejection fraction ([1]; vs vehicle) | left ventricular mass ([1]; vs vehicle) | left ventricular wall thickness and relative wall thickness ([1]; vs vehicle) | ratio of heart weight to total body weight ([1]; vs vehicle) | hepatic expression of p-ERK protein levels ([1]; vs sham and 5/6 nephrectomized rats) | Egr-1 levels (isolated NRVM [2]) | phosphorylated ERK (isolated NRVM [2]) | phosphorylated NFAT (isolated NRVM [2]; after 60 minutes) | RCAN1-4 levels (HEK293 cells) | α-actinin protein levels (isolated NRVM [3]) | expression of ANP and BNP (isolated NRVM [3]) | expression of medium chain acyl-CoA dehydrogenase (MCAD) (isolated NRVM [3]) | expression of α-myosin heavy chain (α-MHC) (isolated NRVM [3]) | expression of β-myosin heavy chain (β-MHC) (isolated NRVM [3]) | phosphorylated Akt (isolated NRVM [2]; after 60 minutes)
CCN(CC)CCCCNc1ncc2cc(-c3cc(OC)cc(OC)c3)c(NC(=O)NC(C)(C)C)nc2n1 [PD173074] | not observed | no difference was detected | no differences | significantly attenuated | decreased | increased | decreased | decreased | reduced | decreased | – | – | – | – | – | – | – | – | – | –
B1 | – | – | – | – | – | – | – | – | – | – | only a modest increase | only a modest increase | modest decrease | increases | increase | increased | decreased | decreased | increased | –
B2 | – | – | – | – | – | – | – | – | – | – | increase | robust increase | had no effect | – | increase | increased | decreased | decreased | increased | modest increase
